Experiments:
mrtfa_human MRTFA [1] = target: mrtfa_human MRTFA (UniProt Q969V6)
mrtfa_human MRTFA [2] = target: mrtfa_human MRTFA (UniProt Q969V6); remark: listed apart in the source

Sequence of UniProt Q969V6 (Q969V6 whole entry): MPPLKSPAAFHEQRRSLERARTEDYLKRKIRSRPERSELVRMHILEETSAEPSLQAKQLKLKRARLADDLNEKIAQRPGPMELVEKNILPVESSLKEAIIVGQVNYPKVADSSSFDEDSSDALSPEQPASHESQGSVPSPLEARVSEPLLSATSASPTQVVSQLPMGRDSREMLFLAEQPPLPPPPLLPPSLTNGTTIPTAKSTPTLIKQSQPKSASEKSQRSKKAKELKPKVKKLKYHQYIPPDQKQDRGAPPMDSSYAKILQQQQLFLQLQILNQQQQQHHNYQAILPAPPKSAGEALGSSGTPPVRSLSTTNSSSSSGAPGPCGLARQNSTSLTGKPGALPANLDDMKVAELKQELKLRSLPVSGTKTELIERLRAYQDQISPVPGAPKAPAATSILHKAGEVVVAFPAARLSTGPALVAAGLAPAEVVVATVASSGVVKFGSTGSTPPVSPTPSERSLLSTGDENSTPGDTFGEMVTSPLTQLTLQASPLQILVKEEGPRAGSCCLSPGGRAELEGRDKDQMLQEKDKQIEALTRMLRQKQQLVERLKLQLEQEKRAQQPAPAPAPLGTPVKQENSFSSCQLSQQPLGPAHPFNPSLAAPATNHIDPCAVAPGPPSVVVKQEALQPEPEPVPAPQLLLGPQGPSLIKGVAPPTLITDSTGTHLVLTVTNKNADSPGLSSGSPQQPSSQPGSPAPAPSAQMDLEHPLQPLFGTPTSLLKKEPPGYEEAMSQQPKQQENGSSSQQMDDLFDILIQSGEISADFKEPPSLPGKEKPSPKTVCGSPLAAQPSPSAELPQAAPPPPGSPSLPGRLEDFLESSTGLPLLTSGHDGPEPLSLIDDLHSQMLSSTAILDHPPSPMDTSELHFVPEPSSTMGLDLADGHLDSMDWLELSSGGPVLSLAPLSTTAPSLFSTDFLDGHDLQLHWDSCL

- effect of a mutation on the interaction (mrtfa_human MRTFA [1]): disrupting interaction strength
- effect of a mutation on the interaction (mrtfa_human MRTFA [2]): decreasing interaction strength
Substance: Filamin-A (Homo sapiens), P21333 S2152A

Reference: IntAct's records for PubMed 36577757
